# From patent US20210403595 (published 2021)
# Numbering of substitutions follows the chain as printed.
# T1: cynomolgus CD3 on T cells (cynomolgus monkey)
# T1 chain: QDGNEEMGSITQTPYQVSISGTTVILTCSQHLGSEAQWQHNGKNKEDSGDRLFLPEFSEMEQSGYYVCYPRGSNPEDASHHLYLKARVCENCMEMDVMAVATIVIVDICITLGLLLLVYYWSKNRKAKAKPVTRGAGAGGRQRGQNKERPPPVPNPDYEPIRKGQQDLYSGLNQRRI
# B1: BSPSMA/CD3-1700 CD3 arm (antibody, V domains shown)
# VH: EVQLVESGGGLVQPGRSLRLSCAASGFTFDDYSMHWVRQAPGKGLEWVSGISWNSGSKGYADSVKGRFTISRDNAKNSLYLQMNSLRAEDTALYYCAKYGSGYGKFYYYGMDVWGQGTTVTVSS
# VL: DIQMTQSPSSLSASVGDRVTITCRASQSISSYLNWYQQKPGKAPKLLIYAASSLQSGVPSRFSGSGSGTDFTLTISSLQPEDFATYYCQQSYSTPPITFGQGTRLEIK
# B2: BSPSMA/CD3-1400 CD3 arm (antibody, V domains shown)
# VH: B1 VH with K58I, Y108H
# VL: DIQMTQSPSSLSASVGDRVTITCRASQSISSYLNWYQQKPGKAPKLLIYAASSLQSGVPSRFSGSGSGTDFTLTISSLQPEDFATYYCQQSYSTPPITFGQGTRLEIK
# B3: BSPSMA/CD3-003 CD3 arm (antibody, V domains shown)
# VH: B1 VH with Y108H, M111L
# VL: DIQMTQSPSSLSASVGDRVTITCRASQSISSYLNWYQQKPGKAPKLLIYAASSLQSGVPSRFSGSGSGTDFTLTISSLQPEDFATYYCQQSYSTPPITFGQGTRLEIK
# B4: BSPSMA/CD3-005 CD3 arm (antibody, V domains shown)
# VH: B1 VH with K58I
# VL: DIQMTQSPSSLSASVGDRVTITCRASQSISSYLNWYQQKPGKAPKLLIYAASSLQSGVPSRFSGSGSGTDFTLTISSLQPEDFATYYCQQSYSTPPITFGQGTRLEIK
# B5: BSPSMA/CD3-800 CD3 arm (antibody, V domains shown)
# VH: B1 VH with K58I, Y108H, M111L
# VL: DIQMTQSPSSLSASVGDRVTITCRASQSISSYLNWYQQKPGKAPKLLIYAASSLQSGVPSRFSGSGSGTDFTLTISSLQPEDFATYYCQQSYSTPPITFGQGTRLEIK
# B6: BSPSMA/CD3-1300 CD3 arm (antibody, V domains shown)
# VH: B1 VH with K58I, M111L
# VL: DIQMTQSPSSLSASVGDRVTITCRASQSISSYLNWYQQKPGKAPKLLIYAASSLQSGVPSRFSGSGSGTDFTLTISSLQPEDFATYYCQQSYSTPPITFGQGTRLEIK
# B7: BSPSMA/CD3-1100 CD3 arm (antibody, V domains shown)
# VH: B1 VH with Y108H
# VL: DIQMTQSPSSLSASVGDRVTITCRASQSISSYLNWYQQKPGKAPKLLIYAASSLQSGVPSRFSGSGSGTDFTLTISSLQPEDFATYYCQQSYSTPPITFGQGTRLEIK
# B8: H1H5753B (antibody, V domains shown)
# VH: QVQLVESGGGLVQPGGSLRLSCAASYFTFSSFAMNWVRQAPGQGLEWVSAISGRVSAISGSGGITYYADSVKGRFIISRDNSKNTLYLQMSGLRAEDTAVYYCAKGPYLTTVTPFDYWGQGTLVTVSS
# VL: DIQLTQSPSSVSASVGDRVTITCRASQGISSWLAWYQQKPGKAPKLLIYAVSSLQNGVPSRFSGSGSGTDFTLTISSLQPEDFATYYCQQANSFPFTFGPGTKLEIKR
# B9: H1H5761P (antibody, V domains shown)
# VH: QVQLVESGGGVVQPGRSLRLSCAASGFTFSSYGMHWVRQAPGKGLEWVAVISYDGSNKYYADSVKGRFTISRDYSKNTLYLQMNSLRAEDTAVFYCAKGAMVRGVPYNYYYGMDVWGQGTTVTVSS
# VL: DIQMTQSPSSLSASVGDRVTITCRASQGIRNDLGWFQQKPGKAPKRLIYAASSLQSGVPSRFSGSGSGTEFTLTISSLQPEDFATYYCLQHNSYPYTFGQGTKLEIK
# B10: H1H5796B (antibody, V domains shown)
# VH: EVQLVESGAEVKKPGASVKVSCKTSGYTFTGYYMHWIRQAPGQGLEWMGWINPKSGGTNYAQKFQGRVTMTRDTSISTAYMELSRLRSDDMAVYYCARMGDGAVFDFWGQGTLVTVSS
# VL: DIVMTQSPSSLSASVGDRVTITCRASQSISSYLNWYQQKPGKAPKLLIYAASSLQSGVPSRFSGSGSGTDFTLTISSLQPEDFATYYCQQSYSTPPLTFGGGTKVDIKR
# B11: H1H5777P (antibody, V domains shown)
# VH: EVQLVESGGGLVQPGRSLRLSCAASGFTFDDYAMHWVRQAPGKGLEWVSGISWNSGSRDYADSVKGRFTISRDNARNSLFLQMNSLSTEDTALYYCAKDKSGYGSYYYGMDVWGQGTTVTVSS
# VL: EIVLTQSPGTLSLSPGDRATLSCRASQSIRSIYLAWYQQKPGQAPRLLIHGASTRATGIPDRFSGSGSGTDFTLTISRLEPEDFAVYYCQQRVSSPYTFGQGTKLEIK
# B12: H1H5769P (antibody, V domains shown)
# VH: B11 VH with A33T, A40V, V48I, R58M, L86V, S87R, Y106F
# VL: B11 VL with I29V, R30S, V93A, S94H
# B13: H1H5751P (antibody)
# chain 1: EVQLVESGGDLVQPGRSLRLSCAASGFTFDDYTMHWVRQAPGKGLEWVSIISWNGNTIDYADSVKGRFTISRDNAKNSLYLQMNSLRAEDTALYYCAKDKSGYGHFYYYVLDVWGQGTTVTVSS
# chain 2: DIQMTQSPSSLSASVGDRVTITCRASQSINNYLNWYQQKPGKAPKLLIYAASSLQSGVPSRFSGSGSGTDFTLTISSLQPEDFATYYSQQSYSFPWTFGQGTKVEIK
# B14: H1H5764P (antibody, V domains shown)
# VH: B9 VH with S30R, Y32F, S56N, N57Y, Y74N, F94H, Y109F
# VL: B9 VL with G28V, F36Y, V58I
# B15: H1H5758B (antibody, V domains shown)
# VH: B9 VH with Q1E, A49T, S52L, Y53H, K58R, Y74N, S85I, F94Y, A97T, Y109H
# VL: DIVMTQSPSSLSASVGDRVTITCRASQGIRNDLGWYQQKPGKAPKRLIYAASNLQSGVPSRFSGSGSGTEFTLTISSLQPEDFATYYCLQHNSYPYTFGQGTKLEIKR
# B16: BSPSMA/CD3-004 CD3 arm (antibody, V domains shown)
# VH: B1 VH with K58I, Y99D
# VL: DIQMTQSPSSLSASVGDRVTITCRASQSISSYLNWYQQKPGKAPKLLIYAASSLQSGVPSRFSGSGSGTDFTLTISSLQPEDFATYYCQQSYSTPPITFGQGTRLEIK
# B17: BSPSMA/CD3-1800 CD3 arm (antibody, V domains shown)
# VH: B1 VH with K58I, Y99D, M111L
# VL: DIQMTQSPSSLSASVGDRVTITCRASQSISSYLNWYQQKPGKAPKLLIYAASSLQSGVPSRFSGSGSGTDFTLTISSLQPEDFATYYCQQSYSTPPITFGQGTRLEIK
# B18: H2M3548N (antibody, V domains shown)
# VH: EVQLVESGGGLVQPGRSLRLSCAASGFKFADYAMHWVRQAPGKGLEWVSEISWNSGSIGYVDSVKGRFTISRDNAKNSLYLQMNSLRAEDTALYYCVKDKSGYGHYYIGMDVWGQGTTVIVSS
# VL: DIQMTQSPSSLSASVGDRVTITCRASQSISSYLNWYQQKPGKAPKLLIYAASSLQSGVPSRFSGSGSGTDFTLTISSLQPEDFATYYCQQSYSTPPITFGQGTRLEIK
# B19: H1M3549N (antibody, V domains shown)
# VH: EVQLVESGGGLVQPGRSLRLSCVASGFPFADYTMHWVRQAPGKGLEWVSDISWNSGSIGYADSVKGRFTISRDNAKNSLYLQMNSLRTEDTALYYCAKDMSGYAHYFYYGMDVWGQGTTVTVSS
# VL: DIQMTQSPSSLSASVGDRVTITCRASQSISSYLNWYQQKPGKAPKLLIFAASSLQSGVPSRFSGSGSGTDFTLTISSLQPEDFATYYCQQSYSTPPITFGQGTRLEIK
# B20: H2M2710N (antibody, V domains shown)
# VH: QVQLVESGGGVVQPGRSLRLSCAASGFTFRSFGMHWVRQAPGRGLEWVAMIYFDGKNKYYADSVRGRFTISRDNSKNTLYLEMSSLRAEDTAVYFCARGPGYNWLDPWGQGTLVTVSS
# VL: EIVMTQSPATLSVSPGERATLSCRASQSVSRNLAWYQQKPGQAPRLLIYGASTRATGVPARFSGSGSGTEFTLTISSLQSEDFAVFHCQQYNNRPLTFGGGTEVEIK
# B21: H2M3541N (antibody, V domains shown)
# VH: B19 VH with Q13R, V23A, P28T, A30D, S57T, T88P, F107Y
# VL: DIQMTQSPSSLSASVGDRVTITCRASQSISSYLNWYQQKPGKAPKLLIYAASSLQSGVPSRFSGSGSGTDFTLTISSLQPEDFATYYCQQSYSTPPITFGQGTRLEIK
# B22: H2M2704N (antibody, V domains shown)
# VH: B20 VH with A23G, F32Y, A40T, F53Y, K56N, I70V, E82Q, V93L
# VL: B20 VL with V29I, Q38X, V58I, F86Y, H87Y
# modifications: not fully specified; listing feature
# B23: H2M3543N (antibody, V domains shown)
# VH: B19 VH with V23A, P28T, A30D, I70V, T88G, F107G
# VL: DIQMTQSPSSLSASVGDRVTITCRASQSIRNYLNWYQQKPGKVPKLLIYAASSLQSGVPSRFSGSGSGTDFTLTISSLQPEDFATYYCQQSYSNPPITFGQGTRLEIK
# B24: H2M2778N (antibody, V domains shown)
# VH: B1 VH with G56R, K58I, G59D, A97V, Y99D, G100N, K105R, F106Y, T121S
# VL: KIVMTQSPATLSVSPGERATLSCRASQSVSGNLAWYQQKPGQAPRLLIYGASTRATSIPARFSGSGSGTEFTLTISSLQSEDFAVYFCQHYYNWPLTFGGGTKVEIR
# Biological target: T1, cynomolgus CD3 on T cells
# Test: FACS
row,Binder,EC50
1,B1,3350 nM
2,B2,170 nM
3,B3,14.2 nM
4,B4,6140 nM
5,B5,19.6 nM
6,B6,2170 nM
7,B7,890 nM

# Biological target: human CD3 on Jurkat cells (human)
# Test: FACS
# Chain of human CD3 on Jurkat cells (human) (chain, as listed by the source, chain 1 of 2): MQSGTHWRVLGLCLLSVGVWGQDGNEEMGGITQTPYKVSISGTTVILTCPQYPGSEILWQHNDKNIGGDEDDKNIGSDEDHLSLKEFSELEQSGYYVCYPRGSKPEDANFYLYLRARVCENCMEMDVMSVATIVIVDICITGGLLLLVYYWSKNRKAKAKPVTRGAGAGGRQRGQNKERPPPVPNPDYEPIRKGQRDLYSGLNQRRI
# Chain of human CD3 on Jurkat cells (human) (chain, as listed by the source, chain 2 of 2): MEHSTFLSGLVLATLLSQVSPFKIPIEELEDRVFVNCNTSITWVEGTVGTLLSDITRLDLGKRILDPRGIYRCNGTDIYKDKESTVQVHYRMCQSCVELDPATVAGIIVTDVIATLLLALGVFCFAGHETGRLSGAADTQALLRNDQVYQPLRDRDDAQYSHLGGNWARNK
row,Binder,binding result
1,B8,no binding

# Biological target: human CD3 on Jurkat cells (human)
# Test: FACS
# Remark: another data set of the same source
row,Binder,EC50
1,B9,2.1 nM
2,B10,9.82 nM
3,B11,0.571 nM
4,B12,4.1 nM
5,B13,2.12 nM
6,B14,0.88 nM
7,B15,1.9 nM

# Biological target: human CD3 on Jurkat cells (human)
# Test: FACS
# Remark: another data set of the same source
row,Binder,EC50
1,B1,200 nM
2,B2,31.9 nM
3,B16,~1000 nM
4,B17,126 nM
5,B4,210 nM
6,B6,102 nM
7,B7,18.3 nM

# Biological target: T1, cynomolgus CD3 on T cells
# Test: FACS
# Remark: another data set of the same source
row,Binder,binding result
1,B16,no binding
2,B17,no binding

# Biological target: human CD3 on Jurkat cells (human)
# Test: FACS
# Remark: another data set of the same source
row,Binder,EC50
1,B18,1.1 nM
2,B19,2.3 nM
3,B20,0.71 nM
4,B21,3.7 nM

# Biological target: human CD3 epsilon/delta heterodimer, Fc-tagged (human)
# Test: SPR, 37C
# Chain of human CD3 epsilon/delta heterodimer, Fc-tagged (human) (chain, as listed by the source mutant, chain 1 of 2): as the sequence (chain, as listed by the source, chain 1 of 2) above
# Chain of human CD3 epsilon/delta heterodimer, Fc-tagged (human) (chain, as listed by the source mutant, chain 2 of 2): as the sequence (chain, as listed by the source, chain 2 of 2) above
row,Binder,Kd
1,B1,65.2 nM
2,B2,53.3 nM
3,B3,5.78 nM
4,B4,334 nM
5,B5,19.4 nM
6,B6,122 nM
7,B7,11.1 nM

# Biological target: human CD3 epsilon/delta heterodimer, Fc-tagged (human)
# Test: SPR, 37C
# Remark: another data set of the same source
row,Binder,binding result
1,B16,no binding
2,B17,no binding

# Biological target: human CD3 epsilon/delta heterodimer, Fc-tagged (human)
# Test: SPR, 25C antigen-capture
row,Binder,Kd
1,B9,53.4 nM
2,B10,2.32 nM
3,B11,3.52 nM
4,B12,4.41 nM
5,B13,3.42 nM
6,B14,21 nM

# Biological target: human CD3 epsilon/delta heterodimer, Fc-tagged (human)
# Test: SPR, 25C antibody-capture
row,Binder,Kd
1,B9,5160 nM
2,B10,60.5 nM
3,B11,224 nM
4,B12,121 nM
5,B13,129 nM

# Biological target: human CD3 epsilon/delta heterodimer, Fc-tagged (human)
# Test: SPR, 25C antibody-capture
# Remark: another data set of the same source
row,Binder,Kd
1,B18,130 nM
2,B22,20 nM
3,B23,30 nM
4,B24,8.9 nM
